Columns and labels:
[1] = molecular target: T1, recombinant PcrV protein (rePcrV) coated on ELISA plates (Pseudomonas aeruginosa, strain not told …); assay: ELISA
T1 chain: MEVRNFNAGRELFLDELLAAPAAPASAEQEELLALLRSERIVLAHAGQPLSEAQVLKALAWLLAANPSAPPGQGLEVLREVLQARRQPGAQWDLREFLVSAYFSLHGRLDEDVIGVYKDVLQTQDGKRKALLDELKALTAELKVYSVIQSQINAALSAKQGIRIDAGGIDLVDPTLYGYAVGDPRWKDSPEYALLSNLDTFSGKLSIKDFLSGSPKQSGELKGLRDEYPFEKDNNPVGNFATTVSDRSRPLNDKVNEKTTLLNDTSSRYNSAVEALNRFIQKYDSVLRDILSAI

[2] = molecular target: T2, 6xHis-tagged PcrV of P. aeruginosa clinical isolate KN5 expressed in E. coli (Pseudomonas aeruginosa KN5 (ST357), strain); assay: immunoblot
T2 chain: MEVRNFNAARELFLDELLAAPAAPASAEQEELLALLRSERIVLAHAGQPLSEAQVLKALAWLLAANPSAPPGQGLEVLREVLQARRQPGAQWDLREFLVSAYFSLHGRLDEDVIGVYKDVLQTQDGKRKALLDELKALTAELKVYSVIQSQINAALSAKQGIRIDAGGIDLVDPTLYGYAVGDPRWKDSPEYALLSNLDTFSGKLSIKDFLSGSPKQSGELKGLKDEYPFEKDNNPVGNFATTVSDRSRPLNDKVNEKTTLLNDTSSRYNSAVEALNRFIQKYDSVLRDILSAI

[3] = molecular target: 6xHis-tagged PcrV of P. aeruginosa clinical isolate KN15 expressed in E. coli (Pseudomonas aeruginosa KN15 (ST512), strain); assay: immunoblot
[4] = molecular target: T3, 6xHis-tagged PcrV of P. aeruginosa clinical isolate KN17 expressed in E. coli (Pseudomonas aeruginosa KN17 (ST357), strain); assay: immunoblot
T3 chain: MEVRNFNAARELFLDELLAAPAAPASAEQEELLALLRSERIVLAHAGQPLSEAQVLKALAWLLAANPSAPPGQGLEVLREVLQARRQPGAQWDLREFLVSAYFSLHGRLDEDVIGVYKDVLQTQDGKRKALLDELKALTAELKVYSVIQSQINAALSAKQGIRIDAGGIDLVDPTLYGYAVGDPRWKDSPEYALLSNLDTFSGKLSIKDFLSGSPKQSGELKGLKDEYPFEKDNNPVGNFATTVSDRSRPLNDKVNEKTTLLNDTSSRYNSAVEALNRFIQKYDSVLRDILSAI

[5] = molecular target: T4, 6xHis-tagged PcrV of P. aeruginosa clinical isolate KN27 expressed in E. coli (Pseudomonas aeruginosa KN27 (ST235), strain); assay: immunoblot
T4 chain: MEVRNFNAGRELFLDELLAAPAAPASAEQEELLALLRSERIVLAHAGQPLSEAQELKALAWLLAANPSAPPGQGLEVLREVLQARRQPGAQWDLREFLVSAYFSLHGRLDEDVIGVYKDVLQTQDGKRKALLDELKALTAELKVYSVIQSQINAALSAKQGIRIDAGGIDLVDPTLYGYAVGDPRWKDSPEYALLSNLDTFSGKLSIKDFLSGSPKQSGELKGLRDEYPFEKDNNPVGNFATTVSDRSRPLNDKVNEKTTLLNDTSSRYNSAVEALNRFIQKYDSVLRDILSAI

[6] = molecular target: T5, 6xHis-tagged PcrV of P. aeruginosa clinical isolate KN28 expressed in E. coli (Pseudomonas aeruginosa KN28 (ST357), strain); assay: immunoblot
T5 chain: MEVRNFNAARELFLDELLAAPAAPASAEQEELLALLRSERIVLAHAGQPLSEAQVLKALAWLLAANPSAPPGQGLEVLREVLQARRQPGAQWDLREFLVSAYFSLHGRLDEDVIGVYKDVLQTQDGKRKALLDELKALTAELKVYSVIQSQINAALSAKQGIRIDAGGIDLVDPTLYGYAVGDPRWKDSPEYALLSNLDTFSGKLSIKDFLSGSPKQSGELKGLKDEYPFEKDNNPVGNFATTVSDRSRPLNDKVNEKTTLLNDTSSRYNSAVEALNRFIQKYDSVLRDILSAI

[7] = molecular target: 6xHis-tagged PcrV of P. aeruginosa clinical isolate KN33 expressed in E. coli (Pseudomonas aeruginosa KN33 (ST508), strain); assay: immunoblot
[8] = molecular target: 6xHis-tagged PcrV of P. aeruginosa clinical isolate KN34 expressed in E. coli (Pseudomonas aeruginosa KN34 (ST186), strain); assay: immunoblot
[9] = molecular target: 6xHis-tagged PcrV of P. aeruginosa clinical isolate KN37 expressed in E. coli (Pseudomonas aeruginosa KN37 (ST244), strain); assay: immunoblot
[10] = molecular target: T6, 6xHis-tagged PcrV of P. aeruginosa clinical isolate KN41 expressed in E. coli (Pseudomonas aeruginosa KN41 (ST235), strain); assay: immunoblot
T6 chain: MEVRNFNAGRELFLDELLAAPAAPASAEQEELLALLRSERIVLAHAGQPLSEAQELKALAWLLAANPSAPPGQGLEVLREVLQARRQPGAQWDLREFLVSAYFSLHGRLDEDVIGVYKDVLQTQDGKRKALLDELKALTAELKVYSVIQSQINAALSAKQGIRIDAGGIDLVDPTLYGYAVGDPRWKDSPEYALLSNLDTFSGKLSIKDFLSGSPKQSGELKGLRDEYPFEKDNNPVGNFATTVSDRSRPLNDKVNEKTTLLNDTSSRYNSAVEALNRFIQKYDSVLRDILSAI

[11] = molecular target: T7, 6xHis-tagged PcrV of P. aeruginosa clinical isolate KP2401 expressed in E. coli (Pseudomonas aeruginosa KP2401 (ST5295), strain); assay: immunoblot
T7 chain: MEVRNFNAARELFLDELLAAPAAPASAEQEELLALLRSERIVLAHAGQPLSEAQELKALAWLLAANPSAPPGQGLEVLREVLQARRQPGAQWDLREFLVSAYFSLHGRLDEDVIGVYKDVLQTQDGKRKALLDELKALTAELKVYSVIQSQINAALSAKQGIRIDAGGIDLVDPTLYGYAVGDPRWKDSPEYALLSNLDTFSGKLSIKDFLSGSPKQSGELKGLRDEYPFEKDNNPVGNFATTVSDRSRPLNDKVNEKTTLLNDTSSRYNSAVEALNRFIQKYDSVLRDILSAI

[12] = molecular target: T8, PcrV of P. aeruginosa clinical isolate KN17, from bacterial culture (Pseudomonas aeruginosa clinical isolate …, strain); assay: immunoblot
T8 chain: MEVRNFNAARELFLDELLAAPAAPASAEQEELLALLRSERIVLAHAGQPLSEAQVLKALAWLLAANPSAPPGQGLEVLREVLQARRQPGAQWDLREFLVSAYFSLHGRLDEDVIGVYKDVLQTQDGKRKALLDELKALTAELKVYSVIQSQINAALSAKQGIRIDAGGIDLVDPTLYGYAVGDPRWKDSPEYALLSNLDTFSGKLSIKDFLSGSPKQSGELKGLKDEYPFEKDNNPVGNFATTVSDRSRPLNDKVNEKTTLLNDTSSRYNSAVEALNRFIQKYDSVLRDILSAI

[13] = molecular target: T9, PcrV of P. aeruginosa clinical isolate KN27, from bacterial culture (Pseudomonas aeruginosa KN27 (ST235), strain); assay: immunoblot
T9 chain: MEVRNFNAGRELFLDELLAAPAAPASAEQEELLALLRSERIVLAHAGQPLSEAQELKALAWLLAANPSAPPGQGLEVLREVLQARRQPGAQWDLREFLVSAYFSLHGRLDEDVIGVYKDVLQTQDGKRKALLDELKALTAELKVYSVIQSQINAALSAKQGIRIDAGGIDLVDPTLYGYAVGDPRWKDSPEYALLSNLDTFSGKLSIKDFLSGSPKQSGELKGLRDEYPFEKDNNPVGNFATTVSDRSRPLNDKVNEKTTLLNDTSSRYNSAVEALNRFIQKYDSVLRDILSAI

[14] = molecular target: T10, PcrV of P. aeruginosa clinical isolate KN28, from bacterial culture (Pseudomonas aeruginosa KN28 (ST357); …, strain); assay: immunoblot
T10 chain: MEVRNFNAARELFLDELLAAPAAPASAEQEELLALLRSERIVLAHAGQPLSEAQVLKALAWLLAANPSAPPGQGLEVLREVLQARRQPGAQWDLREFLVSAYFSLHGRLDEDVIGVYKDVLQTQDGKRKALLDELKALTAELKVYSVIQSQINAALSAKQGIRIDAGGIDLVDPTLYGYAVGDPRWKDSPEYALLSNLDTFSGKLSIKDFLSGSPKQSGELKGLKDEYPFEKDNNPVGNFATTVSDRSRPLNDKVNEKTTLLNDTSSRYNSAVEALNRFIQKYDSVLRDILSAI

[15] = molecular target: PcrV of P. aeruginosa clinical isolate KN33, from bacterial culture (Pseudomonas aeruginosa KN33 (ST508), UniProt G3XD49, strain); assay: immunoblot
[16] = molecular target: PcrV of P. aeruginosa clinical isolate KN34, from bacterial culture (Pseudomonas aeruginosa KN34 (ST186), UniProt G3XD49, strain); assay: immunoblot
[17] = molecular target: PcrV of P. aeruginosa clinical isolate KN37, from bacterial culture (Pseudomonas aeruginosa KN37 (ST244), UniProt G3XD49, strain); assay: immunoblot
[18] = molecular target: T11, PcrV of P. aeruginosa clinical isolate KN41, from bacterial culture (Pseudomonas aeruginosa KN41 (ST235), strain); assay: immunoblot
T11 chain: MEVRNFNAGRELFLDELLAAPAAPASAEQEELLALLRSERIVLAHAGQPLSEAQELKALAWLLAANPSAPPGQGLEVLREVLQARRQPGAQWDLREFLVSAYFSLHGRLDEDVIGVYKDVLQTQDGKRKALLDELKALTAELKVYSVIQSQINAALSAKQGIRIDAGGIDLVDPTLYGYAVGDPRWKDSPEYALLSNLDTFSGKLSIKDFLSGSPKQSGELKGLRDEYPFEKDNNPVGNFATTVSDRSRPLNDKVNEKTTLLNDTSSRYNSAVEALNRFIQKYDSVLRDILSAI

[19] = molecular target: T12, PcrV of P. aeruginosa clinical isolate KP2401, from bacterial culture (Pseudomonas aeruginosa KP2401 (ST5295), strain); assay: immunoblot
T12 chain: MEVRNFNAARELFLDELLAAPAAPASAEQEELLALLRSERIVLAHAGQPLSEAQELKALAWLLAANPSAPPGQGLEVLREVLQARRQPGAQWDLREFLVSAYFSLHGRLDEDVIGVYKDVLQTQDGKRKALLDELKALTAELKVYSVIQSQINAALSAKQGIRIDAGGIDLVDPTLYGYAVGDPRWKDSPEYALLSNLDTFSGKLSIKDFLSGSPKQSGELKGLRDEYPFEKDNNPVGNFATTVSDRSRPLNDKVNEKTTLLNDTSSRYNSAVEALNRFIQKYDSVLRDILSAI

[20] = molecular target: PcrV of P. aeruginosa strain PAO1, from bacterial culture (Pseudomonas aeruginosa PAO1); assay: immunoblot
[21] = molecular target: T13, PcrV of P. aeruginosa clinical isolate KN5, from bacterial culture (Pseudomonas aeruginosa KN5 (ST357), strain); assay: immunoblot
T13 chain: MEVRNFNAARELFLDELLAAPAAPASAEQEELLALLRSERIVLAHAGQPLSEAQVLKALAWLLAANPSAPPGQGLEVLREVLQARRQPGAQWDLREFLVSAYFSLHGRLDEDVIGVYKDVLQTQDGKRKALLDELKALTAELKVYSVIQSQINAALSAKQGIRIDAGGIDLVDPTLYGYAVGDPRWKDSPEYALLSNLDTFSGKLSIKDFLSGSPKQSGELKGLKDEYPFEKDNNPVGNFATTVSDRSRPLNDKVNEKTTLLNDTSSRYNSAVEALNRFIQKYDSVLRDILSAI

[22] = molecular target: PcrV of P. aeruginosa clinical isolate KN15, from bacterial culture (Pseudomonas aeruginosa KN15 (ST512), strain); assay: immunoblot

B1: anti-PcrV scFv antibody scFv-m166 (recombinant protein) (scFv, V domains shown)
VH: QVQLKQSGPGLVQPSQSLSITCTVSGFSLTSYGVHWVRQSPGKGLEWLGVIWSGGDTDYNAAFISRLSISKDNSKSQLFFKMNSLRATDTAIYYCARNRGDIYYDFTYAMDYWGQGTSVTVSS
VL: DIQMTQSPASLSASVGETVTITCRASGNIQNYLAWYQQTQGKSPQLLVYSAKTLADGVPSRFSGSGSGTQYSLKINSLQPEDFGSYYCQHFWSTPYTFGGGTKLEIK
EC50 [1]: 35 nM

B2: anti-PcrV scFv conjugated with the mouse IgG1 hinge, CH2 and CH3 domains, scFv-m166-mFc (recombinant protein) (Fc fusion)
VH: QVQLKQSGPGLVQPSQSLSITCTVSGFSLTSYGVHWVRQSPGKGLEWLGVIWSGGDTDYNAAFISRLSISKDNSKSQLFFKMNSLRATDTAIYYCARNRGDIYYDFTYAMDYWGQGTSVTVSS
VL: DIQMTQSPASLSASVGETVTITCRASGNIQNYLAWYQQTQGKSPQLLVYSAKTLADGVPSRFSGSGSGTQYSLKINSLQPEDFGSYYCQHFWSTPYTFGGGTKLEIK
EC50 [1]: 57.2 nM

B3: murine monoclonal anti-PcrV IgG mAb166 (antibody, V domains shown)
VH: QVQLKQSGPGLVQPSQSLSITCTVSGFSLTSYGVHWVRQSPGKGLEWLGVIWSGGDTDYNAAFISRLSISKDNSKSQLFFKMNSLRATDTAIYYCARNRGDIYYDFTYAMDYWGQGTSVTVSS
VL: DIQMTQSPASLSASVGETVTITCRASGNIQNYLAWYQQTQGKSPQLLVYSAKTLADGVPSRFSGSGSGTQYSLKINSLQPEDFGSYYCQHFWSTPYTFGGGTKLEIK
binding result [2]: binds | binding result [3]: binds | binding result [4]: binds | binding result [5]: binds | binding result [6]: binds | binding result [7]: binds | binding result [8]: binds | binding result [9]: binds | binding result [10]: binds | binding result [11]: binds | binding result [12]: binds | binding result [13]: binds | binding result [14]: binds | binding result [15]: binds | binding result [16]: binds | binding result [17]: binds | binding result [18]: binds | binding result [19]: binds | binding result [20]: binds | binding result [21]: binds | binding result [22]: binds
